Patent US20100021456A1

How the values were obtained:
[1] = molecular target: IL-17RA receptor (IL-17 receptor A) on RA synoviocytes (human) (UniProt Q96F46); test: cell-based or functional assay
[2] = molecular target: IL-17RC receptor (IL-17 receptor C) on RA synoviocytes (human) (UniProt Q8NAC3); test: cell-based or functional assay
Sequence of UniProt Q8NAC3 (Q8NAC3 21-791): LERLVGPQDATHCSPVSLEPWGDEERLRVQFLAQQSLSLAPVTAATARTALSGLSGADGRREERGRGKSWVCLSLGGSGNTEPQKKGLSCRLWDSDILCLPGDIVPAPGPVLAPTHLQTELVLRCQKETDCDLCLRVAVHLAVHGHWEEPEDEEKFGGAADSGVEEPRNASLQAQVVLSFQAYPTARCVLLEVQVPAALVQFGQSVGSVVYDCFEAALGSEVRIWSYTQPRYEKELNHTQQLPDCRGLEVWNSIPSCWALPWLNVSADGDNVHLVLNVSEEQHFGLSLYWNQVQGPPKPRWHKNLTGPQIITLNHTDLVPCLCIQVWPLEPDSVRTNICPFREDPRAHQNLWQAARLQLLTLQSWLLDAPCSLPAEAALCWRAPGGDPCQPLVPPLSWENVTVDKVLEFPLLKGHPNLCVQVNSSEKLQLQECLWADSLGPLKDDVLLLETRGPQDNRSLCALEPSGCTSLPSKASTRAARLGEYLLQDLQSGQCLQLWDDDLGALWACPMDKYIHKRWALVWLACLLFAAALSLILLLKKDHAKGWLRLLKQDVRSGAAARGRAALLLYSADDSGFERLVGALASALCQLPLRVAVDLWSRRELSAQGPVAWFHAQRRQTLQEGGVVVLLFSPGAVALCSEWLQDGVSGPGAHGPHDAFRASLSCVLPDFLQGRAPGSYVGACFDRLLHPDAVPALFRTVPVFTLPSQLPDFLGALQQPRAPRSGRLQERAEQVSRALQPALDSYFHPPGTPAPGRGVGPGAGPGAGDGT

reduction in secreted IL-6 induced by IL-17A in the presence of TNF-α, after simultaneous IL-17RA and IL-17RC iRNAs [1]: 20% | reduction in secreted IL-6 induced by IL-17A in the presence of TNF-α, after simultaneous IL-17RA and IL-17RC iRNAs [2]: 20%
Substance: recombinant human IL-17A (R&D Systems) (from UniProt Q16552 24-155) (ligand)
